The record followed here is IntAct's records for PubMed 26040720.

To fix the notation:
B1: Reticulophagy regulator 1 (Homo sapiens), Q9H6L5-1 (parent)
chain: MASPAPPEHAEEGCPAPAAEEQAPPSPPPPQASPAERQQQEEEAQEAGAAEGAGLQVEEAAGRAAAAVTWLLGEPVLWLGCRADELLSWKRPLRSLLGFVAANLLFWFLALTPWRVYHLISVMILGRVIMQIIKDMVLSRTRGAQLWRSLSESWEVINSKPDERPRLSHCIAESWMNFSIFLQEMSLFKQQSPGKFCLLVCSVCTFFTILGSYIPGVILSYLLLLCAFLCPLFKCNDIGQKIYSKIKSVLLKLDFGIGEYINQKKRERSEADKEKSHKDDSELDFSALCPKISLTVAAKELSVSDTDVSEVSWTDNGTFNLSEGYTPQTDTSDDLDRPSEEVFSRDLSDFPSLENGMGTNDEDELSLGLPTELKRKKEQLDSGHRPSKETQSAAGLTLPLNSDQTFHLMSNLAGDVITAAVTAAIKDQLEGVQQALSQAAPIPEEDTDTEEGDDFELLDQSELDQIESELGLTQDQEAEAQQNKKSSGFLSNLLGGH

In this assay the parent is B1. The note with it: with MAP1LC3A.
For the variant D453A;D454A;F455A;E456A;L457A;L458A, the “effect of a mutation on the interaction” value is on record as “disrupting interaction strength”.
